What follows are substances tested against HLA-A*02:01 (Homo sapiens, UniProt P04439, D140Y/D185E/D98H/E176V/E277Q/G131W/G231S/I119V/I121R/I166T/I218V/L300P/L318F/N151K/N90K/P208A/P217A/Q86G/Q94H/R138H/R169H/T345S) (assay: MHC binding assay (UV-ligand exchange, β2m ELISA)). Conditions: MHC class I binding score; binding to HLA-A*02:01 ranged by peptide exchange yield (UV-ligand exchange, β2m ELISA).
Source text: Candidate peptides for T cell based therapies according to the present invention were further tested for their MHC binding capacity (affinity). The individual peptide-MHC complexes were produced by UV-ligand exchange, where a UV-sensitive peptide is cleaved upon UV-irradiation, and exchanged with the peptide of interest as analyzed. Only peptide candidates that can effectively bind and stabilize the peptide-receptive MHC molecules prevent dissociation of the MHC complexes. To determine the yield of the exchange reaction, an ELISA was performed based on the detection of the light chain (β2m) of stabilized MHC complexes. The assay was performed as generally described in Rodenko et al. (Rodenko et al., 2006).
96 well MAXISorp plates (NUNC) were coated over night with 2 ug/ml streptavidin in PBS at room temperature, washed 4× and blocked for 1 h at 37° C. in 2% BSA containing blocking buffer. Refolded HLA-A*02:01/MLA-001 monomers served as standards, covering the range of 15-500 ng/ml. Peptide-MHC monomers of the UV-exchange reaction were diluted 100 fold in blocking buffer. Samples were incubated for 1 h at 37° C., washed four times, incubated with 2 ug/ml HRP conjugated anti-β2m for 1 h at 37° C., washed again and detected with TMB solution that is stopped with […]. Absorption was measured at 450 nm. Candidate peptides that show a high exchange yield (preferably higher than 50%, most preferred higher than 75%) are generally preferred for a generation and production of antibodies or fragments thereof, and/or T cell receptors or fragments thereof, as they show sufficient avidity to the MHC molecules and prevent dissociation of the MHC complexes.

Row | Substance | Peptide exchange
1 | 84 (GLDTILQNL; listed as Homo sapiens) [compound 84] | ++++ (>75% = ++++)
2 | 37 (TLKEYLESL; listed as Homo sapiens) [compound 37] | +++ (>50 = +++)
3 | 104 (SLDQIIQHL; listed as Homo sapiens) [compound 104] | +++ (>50 = +++)
4 | 109 (VIDDLIQKL; listed as Homo sapiens) [compound 109] | ++ (>20% = ++)
5 | 70 (LIDEAAQML; listed as Homo sapiens) [compound 70] | +++ (>50 = +++)
6 | 56 (ILDELVKSL; listed as Homo sapiens) [compound 56] | +++ (>50 = +++)
7 | 62 (LLDTTQKYL; listed as Homo sapiens) [compound 62] | ++++ (>75% = ++++)
8 | 88 (ILDGIIREL; listed as Homo sapiens) [compound 88] | +++ (>50 = +++)
9 | 98 (NLPNTNSILGV; listed as Homo sapiens) [compound 98] | +++ (>50 = +++)
10 | 68 (FLAEAARSL; listed as Homo sapiens) [compound 68] | ++++ (>75% = ++++)
11 | 113 (VLYSLVSKI; listed as Homo sapiens) [compound 113] | +++ (>50 = +++)
12 | 96 (LLDMSLVKL; listed as Homo sapiens) [compound 96] | +++ (>50 = +++)
13 | 53 (ILDEEKFNV; listed as Homo sapiens) [compound 53] | +++ (>50 = +++)
14 | 7 (NLQEKVPEL; listed as Homo sapiens) [compound 7] | +++ (>50 = +++)
15 | 107 (TLVAFLQQV; listed as Homo sapiens) [compound 107] | ++++ (>75% = ++++)
16 | 29 (ILDDVAMVL; listed as Homo sapiens) [compound 29] | +++ (>50 = +++)
17 | 36 (SVNGFISTL; listed as Homo sapiens) [compound 36] | ++ (>20% = ++)
18 | 112 (VLPAVLTRL; listed as Homo sapiens) [compound 112] | +++ (>50 = +++)
19 | 108 (TVIRPLPGL; listed as Homo sapiens) [compound 108] | ++ (>20% = ++)
20 | 92 (KLPGFPTQDDEV; listed as Homo sapiens) [compound 92] | ++ (>20% = ++)

Row | Substance | Peptide exchange
21 | 124 (FLPQKIIYL; listed as Homo sapiens) [compound 124] | ++++ (>75% = ++++)
22 | 67 (YVDSEGIVRM; listed as Homo sapiens) [compound 67] | + (>10% = +)
23 | 101 (NVDENVAEL; listed as Homo sapiens) [compound 101] | ++ (>20% = ++)
24 | 99 (NLPSELPQL; listed as Homo sapiens) [compound 99] | +++ (>50 = +++)
25 | 38 (KLGFGTGVNVYL; listed as Homo sapiens) [compound 38] | ++++ (>75% = ++++)
26 | 129 (VLPDDLSGV; listed as Homo sapiens) [compound 129] | +++ (>50 = +++)
27 | 77 (SIDDVVKKL; listed as Homo sapiens) [compound 77] | ++ (>20% = ++)
28 | 119 (SLGLGFISRV; listed as Homo sapiens) [compound 119] | +++ (>50 = +++)
29 | 90 (ILDYIHNGL; listed as Homo sapiens) [compound 90] | +++ (>50 = +++)
30 | 102 (RLPDQFSKL; listed as Homo sapiens) [compound 102] | +++ (>50 = +++)
31 | 6 (SIPDTIASV; listed as Homo sapiens) [compound 6] | +++ (>50 = +++)
32 | 103 (SLDAVMPHL; listed as Homo sapiens) [compound 103] | +++ (>50 = +++)
33 | 45 (FVYGEPREL; listed as Homo sapiens) [compound 45] | +++ (>50 = +++)
34 | 42 (VLKADVVLL; listed as Homo sapiens) [compound 42] | ++ (>20% = ++)
35 | 46 (VMSSTLYTV; listed as Homo sapiens) [compound 46] | ++++ (>75% = ++++)
36 | 35 (ALFAAGANV; listed as Homo sapiens) [compound 35] | +++ (>50 = +++)
37 | 131 (FVDPNGKISL; listed as Homo sapiens) [compound 131] | +++ (>50 = +++)
38 | 94 (LLDAFSIKL; listed as Homo sapiens) [compound 94] | +++ (>50 = +++)
39 | 91 (ILLDRLFSV; listed as Homo sapiens) [compound 91] | ++++ (>75% = ++++)

Now from value to substance:

Row | Peptide exchange | Substance
40 | +++ (>50 = +++) | 206 (LLYEDIPDKV; listed as Homo sapiens) [compound 206]
41 | +++ (>50 = +++) | 210 (LLPELRDWGV; listed as Homo sapiens) [compound 210]
42 | +++ (>50 = +++) | 201 (SLIDRTIKM; listed as Homo sapiens) [compound 201]
43 | +++ (>50 = +++) | 144 (SVDEVEISV; listed as Homo sapiens) [compound 144]
44 | ++++ (>75% = ++++) | 197 (ALDSGFNSV; listed as Homo sapiens) [compound 197]
45 | ++++ (>75% = ++++) | 234 (KVPEIEVTV; listed as Homo sapiens) [compound 234]
46 | +++ (>50 = +++) | 219 (FLDSEVSEL; listed as Homo sapiens) [compound 219]
47 | ++++ (>75% = ++++) | 159 (TILATVPLV; listed as Homo sapiens) [compound 159]
48 | ++++ (>75% = ++++) | 154 (TLGTATFTV; listed as Homo sapiens) [compound 154]
49 | ++++ (>75% = ++++) | 181 (GLIDLEANYL; listed as Homo sapiens) [compound 181]
50 | +++ (>50 = +++) | 136 (FAYDGKDYIAL; listed as Homo sapiens) [compound 136]
51 | +++ (>50 = +++) | 158 (KLIPSIIVL; listed as Homo sapiens) [compound 158]
52 | +++ (>50 = +++) | 202 (RVAFKINSV; listed as Homo sapiens) [compound 202]
53 | ++++ (>75% = ++++) | 169 (TLLESIQHV; listed as Homo sapiens) [compound 169]
54 | ++++ (>75% = ++++) | 143 (ILDDSALYL; listed as Homo sapiens) [compound 143]
55 | +++ (>50 = +++) | 214 (VLMEMSYRL; listed as Homo sapiens) [compound 214]
56 | +++ (>50 = +++) | 162 (TLDGNPFLV; listed as Homo sapiens) [compound 162]

Row | Peptide exchange | Substance
57 | +++ (>50 = +++) | 217 (NMMSGISSV; listed as Homo sapiens) [compound 217]
58 | +++ (>50 = +++) | 209 (SILDGLIHL; listed as Homo sapiens) [compound 209]
59 | +++ (>50 = +++) | 139 (AVDATVNQV; listed as Homo sapiens) [compound 139]
60 | +++ (>50 = +++) | 194 (TLDDIMAAV; listed as Homo sapiens) [compound 194]
61 | ++ (>20% = ++) | 208 (YSDDIPHAL; listed as Homo sapiens) [compound 208]
62 | ++++ (>75% = ++++) | 183 (FLDSLIYGA; listed as Homo sapiens) [compound 183]
63 | ++++ (>75% = ++++) | 132 (FLDASGAKL; listed as Homo sapiens) [compound 132]
64 | ++++ (>75% = ++++) | 171 (KVSGVILSV; listed as Homo sapiens) [compound 171]
65 | +++ (>50 = +++) | 146 (GVGPVPARA; listed as Homo sapiens) [compound 146]
66 | ++++ (>75% = ++++) | 237 (VLYNESLQL; listed as Homo sapiens) [compound 237]
67 | ++++ (>75% = ++++) | 149 (YLDTFALKL; listed as Homo sapiens) [compound 149]
68 | ++++ (>75% = ++++) | 184 (VLFSSPPVILL; listed as Homo sapiens) [compound 184]
69 | ++++ (>75% = ++++) | 185 (ILADATAKM; listed as Homo sapiens) [compound 185]
70 | +++ (>50 = +++) | 141 (YVIDPIKGL; listed as Homo sapiens) [compound 141]
71 | +++ (>50 = +++) | 187 (SLPRPTPQA; listed as Homo sapiens) [compound 187]
72 | ++++ (>75% = ++++) | 235 (ALADLQEAV; listed as Homo sapiens) [compound 235]

— patent publication US10640547B2, “Immunotherapy against melanoma and other cancers” (IMMATICS BIOTECHNOLOGIES GMBH, priority 2016, dated 2020)
